The values below come from patent US20180002383A1.

Assay [1] concerns the target human GLUT-1 glucose transporter, endogenous on cells (the 'HTLV receptor' on HeLa, 293T, Jurkat cells and human erythrocytes) (human) (UniProt P11166). Description: cell-based or functional assay.
For assay [2] the target is unchanged.

human GLUT-1 glucose transporter, endogenous on cells (the 'HTLV receptor' on HeLa, 293T, Jurkat cells and human erythrocytes) (human), sequence (P11166 whole entry): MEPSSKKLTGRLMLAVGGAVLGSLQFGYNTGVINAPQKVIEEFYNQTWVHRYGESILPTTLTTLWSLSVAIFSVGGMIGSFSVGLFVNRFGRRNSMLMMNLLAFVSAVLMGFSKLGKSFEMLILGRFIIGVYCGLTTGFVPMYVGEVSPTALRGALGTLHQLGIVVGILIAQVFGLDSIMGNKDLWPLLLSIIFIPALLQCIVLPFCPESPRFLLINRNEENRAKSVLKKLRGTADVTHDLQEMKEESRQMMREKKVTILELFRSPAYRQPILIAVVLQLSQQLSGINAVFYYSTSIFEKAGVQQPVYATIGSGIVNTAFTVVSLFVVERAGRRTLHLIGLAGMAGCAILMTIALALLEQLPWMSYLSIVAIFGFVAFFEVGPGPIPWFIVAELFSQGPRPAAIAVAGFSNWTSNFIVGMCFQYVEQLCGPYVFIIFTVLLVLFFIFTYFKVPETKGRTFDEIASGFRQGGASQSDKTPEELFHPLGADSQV

For “H183FEnv, non-syncytial chimeric envelope with the N-terminal 183 amino acids of the HTLV-1 receptor”, the Lactate accumulation in culture supernatant in assay [1] was found to be 3 fold lower.
In assay [1], “HTLV-1 RBD (H1RBD), first 215 residues of HTLV-1 SU fused to a C-terminal rabbit IgG Fc tag (rFc) (Fc fusion)” yielded a 2-deoxyglucose uptake (fold decrease) of 4 and a Lactate accumulation in culture supernatant of 3 fold lower. In assay [2], the fold increase of binding after overnight culture without glucose came out at 2 fold.
In the case of “HTLV-2 RBD (H2RBD), first 178 residues of HTLV2-SU fused to a C-terminal rabbit IgG Fc tag (rFc) (from UniProt P01868 98-324) (Fc fusion)”, in assay [1], the 2-deoxyglucose uptake (fold decrease) was 4 and the HTLV titers (infection of 293T cells by MLV particles pseudotyped with HTLV-2 envelope) worked out at 2 logs.
